From US9751932B2, “Anti-big-endothelin-1 (big-ET-1) antibodies and uses thereof” (Regeneron Pharmaceuticals, Inc., priority 2012, dated 2017)

T1: mouse big-ET-1 (SEQ ID NO:437) (Mus musculus, UniProt P22387)
T1 sequence (P22387 53-91 limits assumed): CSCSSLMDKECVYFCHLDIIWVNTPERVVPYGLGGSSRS

T2: human big-ET-1 (SEQ ID NO:434) (Homo sapiens, UniProt P05305)
T2 sequence (P05305 53-90 limits assumed): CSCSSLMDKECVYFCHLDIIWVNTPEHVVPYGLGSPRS

B1: H4H6329P: anti-big-ET-1 antibody, human IgG4 Fc; HCVR/LCVR SEQ ID NO: 194/202 (antibody, V domains shown)
VH: QVQLVESGGGVVQPGRSLRLSCAASGFTFGSYGMHWVRQAPGKGLEWVAVIWYDGSDEYYTDSVKGRFTVSRDNSKYTLYLQMNSLRADDTAVYYCARDGYRTRGNYFDYWGQGTLVTVSS
VL: DVVMTQSPLSLPVALGQPASISCRSSQSLVYSDGNTYLNWFQQRPGQSPRRLIYKVSNRDSGVPDRFGGSGSGTDFTLKISRVEAEDVGLYYCMQGTHWPPTFGGGTKVEIK
modifications: human IgG4 Fc
B2: H4H6323P: anti-big-ET-1 antibody, human IgG4 Fc; HCVR/LCVR SEQ ID NO: 146/154 (antibody, V domains shown)
VH: QITLKESGPPLVKPTQTLTLTCTFSGFSLNTNGMGVGWIRQPPGKALEWLTLIYWNDDKRYSPSLKTRLTITKDTSKNQVVLTMTNMDPVDTATYYCARFGSGTYWGQGTLVTVSS
VL: DIVMTQSPLSLPVTPGEPASISCRSSQSLLHSYGYNFLDWFLQKPGQSPQLLIYLGSHRASGVPDRFSGSGSGTDFTLKISRVEAEDVGVYYCMQALQTPLTFGGGTKVEIK
modifications: human IgG4 Fc
B3: H1M6492N: anti-big-ET-1 hybridoma antibody, H1M Fc; HCVR/LCVR SEQ ID NO: 34/42 (antibody, V domains shown)
VH: EVQLVESGGGLVKPGGSLRVSCVASGFTFSNAWMTWVRQTPGKGLECVGRIKSRTDGGTVDYVAPVKGRFTISRDDSKNTLYLQMNSLKAEDTAVYYCRADLDYWGQGTLVTVSS
VL: DVVMTQSPLSLPVSLGQPASISCRSSQSLVHSDGITYLNWFQQRPGQSPRRLIYKISNRDSGVPDRFSGSGSGTDFTLKFSRVEAEDVGVYFCMQGTHWPYTFGQGTKLEIK
modifications: mouse Fc
B4: H4H6353P: anti-big-ET-1 antibody, human IgG4 Fc; HCVR/LCVR SEQ ID NO: 386/394 (antibody, V domains shown)
VH: EVQLVESGGGLVKPGGSLRLSCAASGFSFNYAWMSWVRQAPGKGLEWIGRIKSKINGGTTDYTAPVKGRFTISRDDSKNTLYLQMNSLKTEDTAVYYCRGDEDFWGQGTLVTVSS
VL: DVVMTQSPLSLPVTLGQPASISCRSSQSLVYSDGFTYLNWFRQRPGQSPRRLIYKVSNRDSGVPDRFSGSGSGTDFTLRISRVEAEDVGIYYCMQGTHWPYTFGQGTKLEIK
modifications: human IgG4 Fc
B5: H1M6494N: anti-big-ET-1 hybridoma antibody, H1M Fc; HCVR/LCVR SEQ ID NO: 50/58 (antibody, V domains shown)
VH: EVQLVESGGGLVKPGGSLRVSCVASGFTFSNAWMTWVRQTPGKGLECVGRIKSRTDGGTVDYVAPVKGRFTISRDDSKNTLYLQMNSLKAEDTAVYYCRADLDYWGQGTLVTVSS
VL: DVVMTQSPLSLPVSLGQPASISCRSSQSLVHSDGITYLNWFQQRPGQSPRRLIYKISNRDSGVPDRFSGSGSGTDFTLKFSRVEAEDVGVYFCMQGTHWPYTFGQGTKLEIK
modifications: mouse Fc
B6: H4H6317P: anti-big-ET-1 antibody, human IgG4 Fc; HCVR/LCVR SEQ ID NO: 130/138 (antibody, V domains shown)
VH: QVQLVESGGGVVQPGRSLRLSCAASGFTFSSYGMHWVRQAPGKGLEWVAVLWYDGRNKYYADSVKGRFTISRDNSKNTLYLQMNSLRAEDTAVYYCARSYDAFDIWGQGTMVTVSS
VL: DIQMTQSPSTLSASVGDRVTITCRASQSISSWLAWFQQGPGRAPKLLIYKASTLQSGVPSRFSGSGSGTEFTLTISSLQPDDFATYYCQQYRSYSPTFGQGTKVEIK
modifications: human IgG4 Fc
B7: H4H6330P: anti-big-ET-1 antibody, human IgG4 Fc; HCVR/LCVR SEQ ID NO: 210/218 (antibody, V domains shown)
VH: EVQLVESGGGLVQPGGSLRLSCAASGFTFSNYAMSWVRQAPGKGLEWVSAVSGSGVGTYYADSVKGRFTISRDNSKNTLYLQMKSLSAEDTALYYCTKTLGGTHAFDIWGQGTMVTVSS
VL: DIQMTQSPSTLSASVGDRVTITCRASQSISRWLAWYQQKPGKAPKLLIYKASSLESGVPSRFSGSGSGTEFTVTINSLQPDDFATYYCQQYNSYSSFGQGTKLEIK
modifications: human IgG4 Fc
B8: H4H6345P: anti-big-ET-1 antibody, human IgG4 Fc; HCVR/LCVR SEQ ID NO: 354/362 (antibody, V domains shown)
VH: EVQLVESGGGLVQPGGSLRLSCAASGFIFSSYAMTWVRQAPGKGLEWVSAISGSGVSTYYADSVKGRFTISRDNSKNTLYLQMNSLRIEDTAVYYCGKARTGTHAFDIWGQGTMVTVSS
VL: DIQMTQSPSTLSASVGDRVTITCRASQSISRWLAWYQQKPGKAPKLLIYKASSLETGVPSRFSGSGSGTEFTLTISSLQPDDFGTYYCQQYNSYSSFGPGTKVDIK
modifications: human IgG4 Fc

Key:
[1] = target: T1, mouse big-ET-1 (SEQ ID NO:437); assay: Surface plasmon resonance (Biacore) binding, mAb capture format, 37° C.; settings: for ka / kd / Kd: analyte mouse big-ET-1, mAb capture; for Kd: KD=kd/ka
Procedure: (§1) Measurements were conducted on a T200 Biacore instrument (Biacore Life Sciences division of GE Healthcare, Piscataway, N.J.). […] Different concentrations of small-ET-1 (SEQ ID NO:435), human big-ET-1 (SEQ ID NO:434) or mouse big-ET-1 (SEQ ID NO:437) were injected over the anti-big-ET-1 captured surfaces at a flow rate of 100 μl/min. Peptide binding was monitored for 3 min while dissociation of mAb-bound peptide was monitored for 4 min in HBST running buffer (0.01 M HEPES pH 7.4, 0.15 M NaCl, 3 mM EDTA, 0.005% v/v Surfactant P20). Kinetic association (ka) and dissociation (kd) rate constants were determined by processing and fitting the data to a 1:1 binding model using Scrubber 2.0 curve fitting software.

[2] = target: T2, human big-ET-1 (SEQ ID NO:434); assay: as above; settings: for ka / kd: analyte human big-ET-1, mAb capture
Procedure: as §1

Molecule	ka [1]	kd [1]	ka [2]	kd [2]	binding to mouse big-ET-1 (in words) [1]	Kd [1]	binding to human big-ET-1 (in words) [2]
B1	11600 M/s	0.000223 s⁻¹	595000 M/s	0.000176 s⁻¹	–	–	–
B2	580000 M/s	0.0192 s⁻¹	565000 M/s	0.00569 s⁻¹	–	–	–
B3	–	–	248000 M/s	0.0016 s⁻¹	did not show any binding	> 1000 nM	high affinity binding
B4	2900 M/s	0.00236 s⁻¹	1.14e+06 M/s	0.00116 s⁻¹	–	–	–
B5	–	–	239000 M/s	0.00169 s⁻¹	did not show any binding	> 1000 nM	high affinity binding
B6	–	–	36700 M/s	0.000199 s⁻¹	did not show any binding	> 1000 nM	high affinity binding
B7	1.5e+06 M/s	0.072 s⁻¹	1.42e+06 M/s	0.0324 s⁻¹	–	–	–
B8	1.5e+06 M/s	0.0974 s⁻¹	663000 M/s	0.058 s⁻¹	–	–	–
